No end group written: not given here.
What was measured:
albumin = biological target: T1, albumin (Oryctolagus cuniculus, UniProt P49065); experiment: Affinity chromatography of crude rabbit serum on a column of immobilized ligand: retention or carry-over of albumin; type: binding
T1 construct: tissue SIGMA R 9133; host or cells: crude rabbit serum
Method: (§1) In order to purify immunoglobulins, the column was equilibrated with a 25 mM BIS-TRIS buffer (SIGMA, Cat. B9754) pH 6.5, at a flow rate of 1 ml/min, while the eluent was monitored at 280 nm. One milliliter of crude rabbit serum (SIGMA Cat. No. R 9133) was then loaded on the column, and after elution of non retained material at the column void volume, the eluent was changed to 0.1 M acetic acid.
(§2) Material desorbed by such a treatment was collected and analyzed by electrophoretic analysis on a polyacrylamide gel.
(§3) The purification of rabbit immunoglobulins from crude serum by affinity chromatography is shown in FIG. 1 while the electrophoretic analysis of the collected fractions is shown in FIG. 2. […] Furthermore, in FIG. 2 are also shown the electrophoretic analyses corresponding to several rabbit immunoglobulins purifications obtained after equilibration of the affinity column with different buffers, namely 0.1 M ammonium acetate pH 5.7 (A), 0.1 M sodium phosphate pH 7.0 (B), or 0.1 M sodium phosphate pH 8.5 (C).
Indeed similar results were attained with other supports such as Protein-Pak (Waters, USA), Eupergit C30N (Sigma, USA) and Affi-Gel (Bio-Rad, USA).

rabbit immunoglobulins = experiment: Affinity chromatography of crude rabbit serum on a column of immobilized peptide, with polyacrylamide gel electrophoresis of the fractions; type: binding
Method: The peptide of formula (H-L-Arg-L-Thr-L-Tyr-)4-Lys2-Lys-Gly-OH (5 mg) was dissolved in 5 ml of 0.1 M sodium bicarbonate buffer pH 9.0 and then added to 1.2 g of activated resin CH-Sepharose 4B (Pharmacia, Uppsala, Sweden Cat. No. 17-0490-01), which is a chromatographic support for affinity chromatography preactivated for the direct coupling to peptides and proteins. The suspension was shaken for 24 h and the coupling level was monitored by taking aliquots of the reaction mixture at different times and subsequent RP-HPLC analysis.
Approximately 90% of initial peptide resulted covalently linked to the resin after 24 h. The derivatized resin was washed with 50 ml of 1 M TRIS pH 9.0 and then packed on a glass column (100×6.6 mm I.D.).
as §1, §2, §3

[1] = biological target: albumin of crude rabbit serum (rabbit, UniProt P49065 25-608); experiment: affinity chromatography of crude rabbit serum on the peptide immobilised on CH-Sepharose 4B; SDS-PAGE of fractions
Sequence of albumin of crude rabbit serum (P49065 25-608 limits assumed): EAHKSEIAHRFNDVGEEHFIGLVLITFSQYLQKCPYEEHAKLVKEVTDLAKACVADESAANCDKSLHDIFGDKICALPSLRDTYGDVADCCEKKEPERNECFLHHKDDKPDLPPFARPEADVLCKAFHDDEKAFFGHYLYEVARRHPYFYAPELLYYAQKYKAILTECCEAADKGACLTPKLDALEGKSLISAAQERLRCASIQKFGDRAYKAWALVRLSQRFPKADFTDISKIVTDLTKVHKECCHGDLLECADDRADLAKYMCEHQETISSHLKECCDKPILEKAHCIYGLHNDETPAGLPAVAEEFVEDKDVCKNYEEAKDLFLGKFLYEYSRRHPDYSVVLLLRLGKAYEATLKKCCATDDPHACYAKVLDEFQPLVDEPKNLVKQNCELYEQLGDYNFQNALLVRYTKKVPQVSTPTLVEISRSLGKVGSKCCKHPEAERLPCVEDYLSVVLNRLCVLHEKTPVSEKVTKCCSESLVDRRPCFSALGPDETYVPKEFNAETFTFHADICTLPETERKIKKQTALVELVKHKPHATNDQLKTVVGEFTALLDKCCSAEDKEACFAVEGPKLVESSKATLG

T1 sequence (P49065 25-608): as the sequence (P49065 25-608 limits assumed) above

Question: Which “albumin in the purified fractions” value (albumin; same serum, immobilized protein A column of the same dimensions) does the source give for “protein A: protein obtained from Staphylococcus aureus, binds specifically to the constant portion of immunoglobulins; comparator affinity ligand [reference compound]” here?
Answer: always comprising traces of albumin

Question: How did the “purification of immunoglobulins from contaminants after equilibration with different buffers” value (rabbit immunoglobulins; 0.1 M ammonium acetate pH 5.7, 0.1 M sodium phosphate pH 7.0 or pH 8.5, desorbed with 0.1 M acetic acid) turn out when “(H-L-Arg-L-Thr-L-Tyr-)4-Lys2-Lys-Gly-OH (peptide H-Arg-Thr-Tyr; chain KKKG-OH; also: branched tetramer: four RTY arms on the alpha and epsilon amines of two Lys, which are attached to the alpha and epsilon amines of a central Lys followed by Gly)” was run?
Answer: optimal purification of immunoglobulins from contaminants was achieved

Question: And the “retention of the immunoglobulin fraction from crude serum by the column” value (rabbit immunoglobulins; 1 ml crude rabbit serum, 25 mM BIS-TRIS pH 6.5, elution with 0.1 M acetic acid, peptide on CH-Sepharose 4B)?
Answer: able to retain the immunoglobulin fraction from the crude serum

Question: What about the “purification capability of the column” value (rabbit immunoglobulins; immunoglobulins purified from 0.5 ml, 1 ml and 1.5 ml of serum) of the same molecule?
Answer: remarkable purification capability

Question: What about the “retention of albumin by the column” value (albumin; 1 ml crude rabbit serum, 25 mM BIS-TRIS pH 6.5, peptide on CH-Sepharose 4B) of the same molecule?
Answer: albumin was not retained

Question: What about the “column selectivity compared with immobilized protein A columns” value (albumin; same serum, columns of the same dimensions) of the same molecule?
Answer: superior to that of columns with immobilized protein A

B1: (H-L-Arg-L-Thr-L-Tyr-)4-Lys2-Lys-Gly-OH (peptide)
peptide: H-Arg-Thr-Tyr
chain: KKKG-OH
modifications: also: branched tetramer: four RTY arms on the alpha and epsilon amines of two Lys, which are attached to the alpha and epsilon amines of a central Lys followed by Gly
notes: Synthetic branched tetramer; also called (H2N-Arg-Thr-Tyr-CO)4-Lys2Lys-Gly-OH; tetrameric tripeptide (H-L-Arg-L-Thr-L-Tyr-)4-Lys2-Lys-COOH
Question: Does B1 bind [1]?
Answer: no binding

— patent US6566077B1, “Peptide useful as a ligand” (Tecnogen S.C.p.A., priority 1995, dated 2003)
